The record followed here is patent publication US20240239870A1 (published 2024).

The target in experiment [1] is T1, human PCSK9 (proprotein convertase subtilisin kexin type 9) (human, UniProt Q8NBP7 31-692, biotinylated in the BLI assay (site not stated)).
T1 construct: Immobilized directly (SPR), biotinylated on streptavidin tips (BLI), recombinant from baculovirus (FRET); also called hPCSK9
In words: ITC, 37 C, average of 3 experiments. The protocol: Solution phase binding was measured in 25 mM HEPES, pH 7.41, 150 mM NaCl at 37° C.
For orientation: Isothermal titration calorimetry measures the heat released or taken up as one component is titrated into another.

In experiment [2] the target is T1, human PCSK9 (proprotein convertase …). As to the kind of experiment: ITC, 37 C.

T1 sequence (Q8NBP7 31-692 limits assumed): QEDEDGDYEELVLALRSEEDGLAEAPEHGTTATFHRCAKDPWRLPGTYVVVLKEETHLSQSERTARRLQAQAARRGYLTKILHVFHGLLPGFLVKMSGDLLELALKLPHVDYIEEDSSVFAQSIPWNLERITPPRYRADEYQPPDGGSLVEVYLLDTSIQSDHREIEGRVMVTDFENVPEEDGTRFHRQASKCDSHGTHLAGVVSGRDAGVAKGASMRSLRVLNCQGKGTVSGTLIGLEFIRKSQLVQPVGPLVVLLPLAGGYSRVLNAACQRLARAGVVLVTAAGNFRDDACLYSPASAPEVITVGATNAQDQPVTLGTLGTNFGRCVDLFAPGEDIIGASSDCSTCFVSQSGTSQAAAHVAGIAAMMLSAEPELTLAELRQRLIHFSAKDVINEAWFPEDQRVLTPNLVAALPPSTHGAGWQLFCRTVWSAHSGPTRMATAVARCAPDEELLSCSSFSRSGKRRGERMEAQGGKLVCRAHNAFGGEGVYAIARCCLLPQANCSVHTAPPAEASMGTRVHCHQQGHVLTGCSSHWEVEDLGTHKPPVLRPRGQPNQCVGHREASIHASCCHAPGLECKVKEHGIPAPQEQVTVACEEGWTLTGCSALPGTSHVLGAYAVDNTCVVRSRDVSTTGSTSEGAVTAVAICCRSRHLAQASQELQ

B1: ATI001174 [2013E01-non His tagged Cys mut], pegylated (designed binder)
chain: MGVSDVPRDLEVVAATPTSLLISWVPPSDDYGYYRITYGETGGNSPVQEFTVPIGKGTATISGLKPGVDYTITVYAVEFPWPHAGYYHRPISINYRTEIEKPCQ
modifications: pegylated via the cysteine of the EIEKPCQ tail (asterisk in Table 5)
notes: PEGylated, non His tagged cysteine mutant of 2013E01; also called ATI1174
Regarding B1, the ΔS in experiment [1] was -55.8 cal/mol ° C.

B2: anti-PCSK9 Adnectin 2013E01 (designed binder)
chain: MGVSDVPRDLEVVAATPTSLLISWVPPSDDYGYYRITYGETGGNSPVQEFTVPIGKGTATISGLKPGVDYTITVYAVEFPWPHAGYYHRPISINYRTEIDKPSQHHHHHH
notes: also called ATI001081
As for B2, the ΔS in experiment [2] is -45.4 cal/mol ° C.
